Assay results from patent US20140314780A1, “Compositions Using Antibodies Directed to GPNMB and Uses Thereof” (Celldex Therapeutics, Inc., priority 2008, published 2014).

Target: T1, GPNMB (Homo sapiens, UniProt Q14956)
T1 construct: V5His; made in house
T1 sequence (Q14956 23-492): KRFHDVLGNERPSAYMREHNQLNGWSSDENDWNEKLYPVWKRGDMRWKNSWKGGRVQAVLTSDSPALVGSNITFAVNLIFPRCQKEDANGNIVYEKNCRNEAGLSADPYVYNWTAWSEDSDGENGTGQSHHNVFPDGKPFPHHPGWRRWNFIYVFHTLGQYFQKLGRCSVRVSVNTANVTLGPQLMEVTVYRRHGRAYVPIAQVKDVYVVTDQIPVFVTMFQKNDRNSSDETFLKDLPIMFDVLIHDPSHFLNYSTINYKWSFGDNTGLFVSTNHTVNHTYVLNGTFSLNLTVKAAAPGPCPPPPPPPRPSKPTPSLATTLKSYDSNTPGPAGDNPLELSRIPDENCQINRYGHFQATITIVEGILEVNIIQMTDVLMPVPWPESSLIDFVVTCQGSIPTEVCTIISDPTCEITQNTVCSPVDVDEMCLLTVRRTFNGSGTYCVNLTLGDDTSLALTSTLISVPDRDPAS
Experiment: Epitope binning of anti-GPNMB antibodies (competitive binding)
Details: six anti-GPNMB antibodies, three bins
Text: Certain antibodies, described herein were binned in accordance with the protocol described in U.S. Patent Application Publication No. 20030157730. […] Competitive binding by antibodies from […] supports antibody specificity for similar or adjacent epitopes. Non competitive binding supports antibody specificity for unique epitopes.
Three bins were created to further test the binding of six anti-GPNMB antibodies. Bin 1 included GPNMB antibodies (1.2.1), (1.10.1), and (2.22.1). Bin 2 included GPNMB antibodies (2.3.1) and (1.15.1), and Bin 3 included GPNMB antibody (2.10.1). The results of the binning assays are provided below in Tables 4 and 5.

B1: Mab2.22.1: human anti-GPNMB antibody; VH SEQ ID NO: 164, VL SEQ ID NO: 173 (antibody, listed as Homo sapiens, V domains shown)
VH: QVQLEQSGPGLVKPSQNLSLTCTVSGGSISSGGYFWSWIRQHPGKGLEWIGYIYYSGNTYYNPSLKSRVTISVDTSKNQFSLKLSSVTAADTAVYYCARDYYYDTSGFSYRYDWYYGMDVWGQGTTVTVSSA
VL: DIQLTQSPSSLSASVGDRVTITCRASQGIRNDLGWYQQKPGKAPKRLIYAASSLQNGVPSRFSGSGSGTEFTLTISSLQPEDFATYYCLQHNTYPAFGQGTKVEIKR
epitope bin: Bin 1
